Data: article PMC10374538, “Ion selectivity and rotor coupling of the Vibrio flagellar sodium-driven stator unit” (Nature Communications, 2023)

Legend:
[1] = biological target: the molecule itself; assay: cryo-EM structure; VaPomAB (PomB PGB removed) co-expressed and co-purified, in LMNG detergent, 20 mM HEPES pH 7.5, 300 mM NaCl, 0.0125% CHAPSO added; ~2.5 Å
[2] = biological target: the molecule itself; assay: cryo-EM structure; full length, non-cleaved VaPomAB reconstituted into saposin nanodiscs with E. coli polar lipids; 6.3 Å map

B1: Vibrio alginolyticus PomB without the peptidoglycan binding domain (PGB removed by HRV 3C protease at a site inserted between Gln95 and Gln96) (domain or fragment)
chain: MDDEDNKCDCPPPGLPLWMGTFADLMSLLMCFFVLLLSFSEMDVLKFKQIAGSMKFAFGVQNQLEVKDIPKGTSIIAQEFRPGRPEPTPIDVIMQGTLEVLFQ
notes: PomB of Vibrio alginolyticus (ATCC 17749), from the N-terminus to Gln95 (TM helix, plug motif and what follows, up to the inserted protease site); That the twin-Strep-tag sat at the C-terminus of PomB and left with the PGB domain is surmised; also called VaPomB; VaPomAB without PomB PGB; not shown: twin-Strep-tag, C-terminal, cleaved
stoichiometry N [1]: 2

B2: Vibrio alginolyticus PomB, full length, non-cleaved (without protease insertion) (natural protein)
chain: MDDEDNKCDCPPPGLPLWMGTFADLMSLLMCFFVLLLSFSEMDVLKFKQIAGSMKFAFGVQNQLEVKDIPKGTSIIAQEFRPGRPEPTPIDVIMQQTMDITQQTLEFHEGESDRAGGTKRDEGKLTGGQSPATSTQNNESAEADMQQQQSKEMSQEMETLMESIKKALEREIEQGAIEVENLGQQIVIRMREKGAFPEGSAFLQPKFRPLVRQIAELVKDVPGIVRVSGHTDNRPLDSELYRSNWDLSSQRAVSVAQEMEKVRGFSHQRLRVRGMADTEPLLPNDSDDNRALNRRVEISIMQGEPLYSEEVPVIQ
notes: That the tag is on PomB is surmised; Only a 6.3 Å map (EMD-16214) was deposited, no model; also called full length VaPomAB
binding result [2]: binds
